Measurements taken from the supplement of paper PMC9876800.

Tested on: peptide library, one residue held at a place counted from the S/T acceptor
Assay: relative phosphorylation of the sub-library (ratio to the mean residue at this position); higher = residue favoured
Settings: human
Method in brief: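 Relative sub-library phosphorylation is the ratio of each sub-library's signal to the mean residue at that position. The signal came from phosphorimaging of spots on streptavidin membranes, quantified by densitometry, after purified recombinant kinases reacted with biotinylated degenerate peptide sub-libraries in 384-well plates. Reactions held 50 μM peptide and 50 μM ATP spiked with γ-32P-ATP for 90 min under kinase-specific conditions.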

Chain of MAP4K4, construct: aa1-328 (O95819 1-328, looked up): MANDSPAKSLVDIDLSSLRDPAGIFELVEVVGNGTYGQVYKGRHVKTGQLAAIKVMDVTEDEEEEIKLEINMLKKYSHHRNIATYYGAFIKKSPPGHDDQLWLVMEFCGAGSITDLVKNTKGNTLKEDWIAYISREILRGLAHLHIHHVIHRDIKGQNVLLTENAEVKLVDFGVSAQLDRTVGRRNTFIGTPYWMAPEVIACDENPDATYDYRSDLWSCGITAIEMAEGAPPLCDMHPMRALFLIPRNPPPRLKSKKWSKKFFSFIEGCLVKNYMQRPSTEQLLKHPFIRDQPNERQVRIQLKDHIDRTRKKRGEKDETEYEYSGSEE

MAP4K4, construct: aa1-328 (from UniProt O95819)
relative phosphorylation
Settings | at +1 | at +2 | at +3 | at +4 | at -1 | at -2 | at -3 | at -4 | at -5
A fixed | 0.704 | 0.925 | 0.833 | 1.06 | 1.11 | 1.09 | 1.06 | 1.03 | 1.31
D fixed | 0.182 | 0.658 | 0.379 | 0.734 | 0.805 | 0.726 | 0.861 | 0.82 | 0.983
E fixed | 0.181 | 0.553 | 0.325 | 0.487 | 0.423 | 0.544 | 0.672 | 0.913 | 0.714
F fixed | 0.947 | 0.616 | 0.674 | 0.705 | 0.809 | 1.41 | 0.966 | 0.943 | 0.879
G fixed | 0.648 | 1 | 0.812 | 1.2 | 1.65 | 1.07 | 1.23 | 1.08 | 1.27
H fixed | 0.927 | 1.13 | 1.03 | 1.11 | 1.35 | 1.21 | 1.3 | 1.14 | 1.11
I fixed | 1.72 | 0.567 | 0.575 | 0.689 | 0.42 | 0.804 | 0.7 | 0.744 | 0.807
K fixed | 0.896 | 2.26 | 2.37 | 2.03 | 1.27 | 0.792 | 1.16 | 1.1 | 1.18
L fixed | 2.32 | 0.728 | 0.734 | 0.785 | 0.941 | 0.776 | 0.809 | 0.808 | 0.752
M fixed | 2.15 | 0.827 | 0.681 | 0.766 | 1.15 | 0.907 | 0.923 | 1.04 | 0.841
N fixed | 0.688 | 0.905 | 0.823 | 0.956 | 1.17 | 0.952 | 1.09 | 0.929 | 0.843
P fixed | 0.32 | 1.02 | 0.976 | 1.18 | 0.742 | 0.749 | 0.982 | 1 | 1.22
Q fixed | 0.645 | 1.06 | 0.957 | 1.06 | 0.976 | 0.821 | 0.979 | 0.989 | 0.936
R fixed | 0.851 | 2.49 | 3.56 | 1.97 | 1.41 | 0.934 | 1.18 | 1.16 | 1.13
V fixed | 1.2 | 0.694 | 0.653 | 0.775 | 0.587 | 0.852 | 0.583 | 0.894 | 0.909
W fixed | 1.6 | 0.756 | 0.871 | 0.823 | 0.892 | 1.42 | 1.27 | 1.28 | 1.09
Y fixed | 1.02 | 0.806 | 0.746 | 0.669 | 1.28 | 1.94 | 1.22 | 1.13 | 1.04
pThr fixed | 0.465 | 0.462 | 0.606 | 0.607 | 0.373 | 0.608 | 0.839 | 0.961 | 0.998
pTyr fixed | 0.306 | 0.401 | 0.444 | 0.434 | 0.717 | 0.685 | 1.01 | 0.868 | 0.837
